{"source": "the nanobody polyreactivity screen of Harvey et al. (2022)"}
{"experiment": "yeast display, Sf9 membrane polyspecificity reagent, FACS + sequencing; frameworks hold sequencing errors", "summary_of_the_method": "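Sorting gates, low and high (top ~1%), were placed on anti-HA fluorescence to track expression and on streptavidin fluorescence to track reagent binding. A clone's polyreactivity label is taken from the gate it came out of. The reagent was 10% biotinylated, detergent-solubilized Sf9 membrane, applied for 1 hour at 4 °C to galactose-induced yeast display cells.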"}
{"sequence": "QVQLVESGGGLVQAGGSLRLSCAASGRNPMGWYRQAPGKDRELVASISRTGGSTYYADSVKGRFTISRDNAKNTDYLQMNSLKPEDTAVYYCNYFRRPPMYYWGQGTQVTVSS", "polyreactivity (PSR sort gate)": "high polyreactivity"}
{"sequence": "QVQLVESGGGLVQAGGSLRLSCAASGRPFDFYAMGLYRQAPGKERELVADISTGGSTYYADSVKGRFTISRDNAKNTVYLQMNSLKPEDTAVYYCAAVGQDYYKVRYYYWGQGTQVTVSS", "polyreactivity (PSR sort gate)": "low polyreactivity"}
{"sequence": "QVQLVESGGGLVQAGGSLRLSCAASGRPFHRNAMGWYRPAPGKERELVAAITGDGRTNYADSVKGRFTLSRDNAKNTVYLQMNSLKPEDTAFYYCAAEAVWFVGQAFDISDSTTYGFWGQGTQVTVSS", "polyreactivity (PSR sort gate)": "low polyreactivity"}
{"sequence": "QVQLVESGGGLVQAGGSLRLSCAASGRPFSGYAMGWYRQAPGKERELVAAITSSGSSTYYADSVKGRFTISRDNAKNTVYLQMNSLKPEDTAVFYCAATPQAHSERYYYQRKYDYWGQGTQVTVSS", "polyreactivity (PSR sort gate)": "low polyreactivity"}
{"sequence": "QVQLVESGGGLVQAGGSLRLSCAASGRPFTWYALGWYRQAPGKEREVVAAISKSGGSTYYADSVKGRFTISRDNAKNTVYLQMNSLKPEDTAVYYCNADFYGYFLGYGYCGQGTQVTVSS", "polyreactivity (PSR sort gate)": "low polyreactivity"}
{"sequence": "QVQLVESGGGLVQAGGSLRLSCAASGRSFSRNAMGWYRQAPGTERELVAGISSGGSTNYADSVKGRFTISPDTAKNTVYIQMNSLKPEDTAVYYCAKDSAEFVTRYDYWGQGTQVTLSS", "polyreactivity (PSR sort gate)": "low polyreactivity"}
{"sequence": "QVQLVESGGGLVQAGGSLRLSCAASGRSFYGYAMGWYRQAPGKERELVARISGGGRTYYADSVKGRFTISRDNAKNTVYLQMNSLNPEDTAVYYCAAVYRSTWYGFTGSVGTFDYWGQGTQVTVSS", "polyreactivity (PSR sort gate)": "high polyreactivity"}
{"sequence": "QVQLVESGGGLVQAGGSLRLSCAASGRSFYTNAMGWYRPAPGKERELLAAIRRSGTSTYYADSVKGRFTISRDNAYNTVYLQMNSLKPEDTAVYYCAALRSLLYRTYGYWGLGTQVTVSS", "polyreactivity (PSR sort gate)": "low polyreactivity"}
{"sequence": "QVQLVESGGGLVQAGGSLRLSCAASGRSYRRNTMGWYRQAPGKERELVAAISNRGTSTYYADSVKGRFTISRDNEKNTVYLLMNSLKPEDTAVYYCAARGVRSYFFPYNYWGQGTQVTVSS", "polyreactivity (PSR sort gate)": "high polyreactivity"}
{"sequence": "QVQLVESGGGLVQAGGSLRLSCAASGRTCSNYAMGWYRQAPGKERELVAAISYSVGSTYYADSVKGRFTIARDNAKNTVYLQMNSLKPEDTAVYYCNAKSRPHYAWYRYDYWGQGTQVTVSS", "polyreactivity (PSR sort gate)": "high polyreactivity"}
{"sequence": "QVQLVESGGGLVQAGGSLRLSCAASGRTCSRYAMGLYRQAPGKERELFAAISKSSGTTSYADSVKGRFSISRDNAKNTVYLQMIRLNPEDTAVYYFAAGITGRYYGVRFSEDYWGQGTQVTVSS", "polyreactivity (PSR sort gate)": "high polyreactivity"}
{"sequence": "QVQLVESGGGLVQAGGSLRLSCAASGRTCYINAMGWYRQAPGKERELVAAISSGGSTNYADSVKGRFTISRDNAKNTVYLQMNSLKPEDTAVYYCNAKYYQGTPVELDYWGQATQVTVSS", "polyreactivity (PSR sort gate)": "low polyreactivity"}
{"sequence": "QVQLVESGGGLVQAGGSLRLSCAASGRTDFNTMGWYRQAPGKERELVAAITSTGRTYYADSVKGRFTISRDNAKNTVYLQMNSLKPEDTAVYFCAAVWRYKGLLLPSYYYWGQGTQVTVSS", "polyreactivity (PSR sort gate)": "high polyreactivity"}
{"sequence": "QVQLVESGGGLVQAGGSLRLSCAASGRTFAAYAMGWYRQAPGKERELVAAIRRGGTTNYADSVKGRFTISRDNAKNTVYLQMNSLKPEDTAVYYCAALAPYSRSWVTYDYWGQGSQVTVSS", "polyreactivity (PSR sort gate)": "low polyreactivity"}
{"sequence": "QVQLVESGGGLVQAGGSLRLSCAASGRTFAAYAMGWYRQAPGKERELVAAIRRGGTTNYADSVKGRFTISRDNAKNTVYLQMNSLKPEDTAVYYCAALAPYSRSWVTYDYWGQGTQVTVSS", "polyreactivity (PSR sort gate)": "low polyreactivity"}
{"sequence": "QVQLVESGGGLVQAGGSLRLSCAASGRTFADNAMGWYRQAPGKERELVASISSGTSTNYADSVKGRFTISRDNAKNTVYLQMNSLKPEDTAVYYCNAYGPIWYTAVLGVGRYYGWTDYWGQGTQVTVSS", "polyreactivity (PSR sort gate)": "low polyreactivity"}
{"sequence": "QVQLVESGGGLVQAGGSLRLSCAASGRTFAFHDRGWYRQAPGNERELVAALTSVASTYYADSVKGRFTISRDNAKNTVYLQMNSLKPEDTAVYYCAADTRSLRPRYQLYGEDSWGQGTQVTVSS", "polyreactivity (PSR sort gate)": "low polyreactivity"}
{"sequence": "QVQLVESGGGLVQAGGSLRLSCAASGRTFAFYAMGWYRQAPGKERELVASISSSGDRTYYADSVKGRFTISRDNAKNTVYLQMNSLKPEDTAVYYCAARWSYTYYYWGQGTQVTVSS", "polyreactivity (PSR sort gate)": "high polyreactivity"}
{"sequence": "QVQLVESGGGLVQAGGSLRLSCAASGRTFAFYAMGWYRQAPGKERELVAVITKSGGITYYADSVKGRFTISRDNAKNTVYLQMKSLKPEDTAVYYCAADYRYTPNYLYYYWGQGTQVTVSS", "polyreactivity (PSR sort gate)": "low polyreactivity"}
{"sequence": "QVQLVESGGGLVQAGGSLRLSCAASGRTFAFYGMGWYRQAPGKERELVATIRGTGGSTYYADSVKGRFTISRDNAKNTVYLQMNSLKPEDTAVYYCNKYLGIQVGSVPHDYWGQGSQVTVSS", "polyreactivity (PSR sort gate)": "high polyreactivity"}
{"sequence": "QVQLVESGGGLVQAGGSLRLSCAASGRTFAGYAMGWYRQAPGKERELVATISRNGGSTYYADSVKGRFTISRDNAKNTVYLQMNSLKPEDTAVYYCAADRRGVVRFSRYRGIYDYWGQGTQVTVSS", "polyreactivity (PSR sort gate)": "high polyreactivity"}
{"sequence": "QVQLVESGGGLVQAGGSLRLSCAASGRTFAHYAMGWYRQAPGKERELVAVITSGGITYYADSVKGRFTISRDNAKNTVYLQMNSLKPEDTAVYYCNVYSYYYSYGSPYDYWGQGTQVTVSS", "polyreactivity (PSR sort gate)": "high polyreactivity"}
{"sequence": "QVQLVESGGGLVQAGGSLRLSCAASGRTFAIYAMGWYRQAPGKERELVAAISGSGGSTYYADSVKGRFTISRDNAKNTVYLQMNSLKPEDTAVYYCAKRVRGHRYDYWGQGTQVTVSS", "polyreactivity (PSR sort gate)": "high polyreactivity"}
{"sequence": "QVQLVESGGGLVQAGGSLRLSCAASGRTFAIYAMGWYRQAPGKERELVATIRGGSTYYADSVKGRFTISRDNAKNTVYLQMNSLKPEDTAVYYCAAEFLYASVYYSYWGQGTQVTVSS", "polyreactivity (PSR sort gate)": "high polyreactivity"}
{"sequence": "QVQLVESGGGLVQAGGSLRLSCAASGRTFAIYAMGWYRQAPGKERELVAVINYSGDRTYYADSVKGRFTISRDNAKNTVYLQMNSLKPEDTAVYYCAAVLEYTSDYLSGENDYWGQGTQVTVSS", "polyreactivity (PSR sort gate)": "low polyreactivity"}
{"sequence": "QVQLVESGGGLVQAGGSLRLSCAASGRTFAKSAMGWSRQAPGKERELVAAIRWSGGSTYYADSVKARFTISRDNAKNTVYLQMNSLKPEDTAVYYCATERFLLGLGYDYWGQGTQVTVSS", "polyreactivity (PSR sort gate)": "high polyreactivity"}
{"sequence": "QVQLVESGGGLVQAGGSLRLSCAASGRTFAKYAMAWYRQAPGKERELVAAINSSGGSTYYADSVKGRFTISRDNAKNTVYLQMNSLKPEDTAVYFCAALGIGSYRRYSGYDYWGQGTQVTVSS", "polyreactivity (PSR sort gate)": "low polyreactivity"}
{"sequence": "QVQLVESGGGLVQAGGSLRLSCAASGRTFAKYAMGLYRQAPGKERELVAAITRGDTTNYADSVKGRFTISRDNAKNTVYLQMNSLKPEDTAVYYCAATPDPPHTYEYWGQGTQVTVSS", "polyreactivity (PSR sort gate)": "low polyreactivity"}
{"sequence": "QVQLVESGGGLVQAGGSLRLSCAASGRTFAKYAMGWYRQAPGKERELVAAITSGGRTNYADSVKGRFTISRDNAKNTVYLQMNSLKPEDTAVYYCAARRYVVGYFQSKMDYWGQGTQVTVSS", "polyreactivity (PSR sort gate)": "high polyreactivity"}
{"sequence": "QVQLVESGGGLVQAGGSLRLSCAASGRTFANNAMGWYRQAPGKERELVAAISFSTVSTYYADSVKGRFTISRDNAKYTVYLQMNSLKPEDTAVYYCAARRLGYYRKVKELVYWGQGTQVTVSS", "polyreactivity (PSR sort gate)": "high polyreactivity"}
{"sequence": "QVQLVESGGGLVQAGGSLRLSCAASGRTFAPYAMGWYRQAPGKERELVAAISWSGGSTYYADSVKGRFTISRDNAKNTVYLQMNSLKPEDTAVYYCAADGGQTEFDYWGQGTQVTVSS", "polyreactivity (PSR sort gate)": "high polyreactivity"}
{"sequence": "QVQLVESGGGLVQAGGSLRLSCAASGRTFAPYAMGWYRQAPGKERQLVAAISQRGGSTYYADSVKGRFTISRDNAKNTVYLQMNSLKPEDTAIYYCAATKYFYRLSSAFSFGTYGYWGQGTQVTVSS", "polyreactivity (PSR sort gate)": "low polyreactivity"}
{"sequence": "QVQLVESGGGLVQAGGSLRLSCAASGRTFAPYVMGWYRQAPGKERELVAAITLSGDSTDYADSVKGRFTISRDNAKNTVYLQMNSLKPEDTAVYYCNVEYLSYTSYFHYYEYDYWGQGSQVTVSS", "polyreactivity (PSR sort gate)": "low polyreactivity"}
{"sequence": "QVQLVESGGGLVQAGGSLRLSCAASGRTFAQYGMVWYRQAPGKEMELVAAISRRTGSTNYADSVKGRFTISRDNAKNTVYLQMNSLKPEDTAVYYCAARSYSYGVGYGYWGQGTQVTVSS", "polyreactivity (PSR sort gate)": "high polyreactivity"}
{"sequence": "QVQLVESGGGLVQAGGSLRLSCAASGRTFARNAMGWYRQAPGKERELVASINRGGRTNYADSVKGRFTISRDNAKNTVYLQMNSLKPEDTAVYYCAKYILGVGPFFSTYDYWGQGTQVTVSS", "polyreactivity (PSR sort gate)": "high polyreactivity"}
{"sequence": "QVQLVESGGGLVQAGGSLRLSCAASGRTFARYALGWYRQAPGKERELVAAISWSGGSTYYADSVKGRFTISRDNAKNTVYLQMNSLKPEDTAVDYCAAGYGARSAKFDVYGTNEGDYWGQGTQVTVSS", "polyreactivity (PSR sort gate)": "high polyreactivity"}
{"sequence": "QVQLVESGGGLVQAGGSLRLSCAASGRTFARYAMGWYRQAPGKEREFVAGINWSGGGTYYADSVKGRFTISRDNAKNTVYLQMNSLKPEDTAVYYCASYTSVRPKLDYWGLGTQVTVSS", "polyreactivity (PSR sort gate)": "high polyreactivity"}
{"sequence": "QVQLVESGGGLVQAGGSLRLSCAASGRTFARYAMGWYRQAPGKERELVAAINRSGGSTYYADSVKGRFTISRDNAKNTVYLQMNSLKPEDTAVYYCNARDPYTYRYSYYYWGQGTQVTVSS", "polyreactivity (PSR sort gate)": "high polyreactivity"}
{"sequence": "QVQLVESGGGLVQAGGSLRLSCAASGRTFARYAMGWYRQAPGKERELVAAISSSGGSTYYADSVKGRFTISRDNAKNTVYLQMNSLKQEDTAVYYCVTYRNWWYDYWGQGTQVTVSS", "polyreactivity (PSR sort gate)": "high polyreactivity"}
{"sequence": "QVQLVESGGGLVQAGGSLRLSCAASGRTFASNAMGWYRQAPGKERELVAAITRGGSTYYADSVKGRFTISRDNAKNTVYLQMNSLKPEDTAVYYCAADRWWYQNEVDYWGQGTQVTVSS", "polyreactivity (PSR sort gate)": "low polyreactivity"}
{"sequence": "QVQLVESGGGLVQAGGSLRLSCAASGRTFASYAMGWYRQAPGKERDFVASISRRGGSTNYADSVKGRFTISRDNAKNTVYLQMNSLIPEDNAVYYCAKRFTLPLSEYDYWGQGTQVTVSS", "polyreactivity (PSR sort gate)": "high polyreactivity"}
{"sequence": "QVQLVESGGGLVQAGGSLRLSCAASGRTFASYAMGWYRQAPGKERELVAGITSGGNTYYADSVKGRFTISRDNAKNTVYLQMNSLKPEDTAVYYCNAVRRVSSAGEFDYWGQGTQVTVSS", "polyreactivity (PSR sort gate)": "high polyreactivity"}
{"sequence": "QVQLVESGGGLVQAGGSLRLSCAASGRTFASYTMGWYRQAPGKERELVAAISRGGNTYYADSVKGRFTISRDNAKNTVYLQMNSLKPEDTAVYYCAATAVKYDRRFYYWGQGTQVTVSS", "polyreactivity (PSR sort gate)": "high polyreactivity"}
